Sequences and labels used below:
T1: TP-21 (human)
T1 peptide: Biotin-KQSQDEPLRSRKVFV

T2: TP-23 (human)
T2 peptide: Biotin-TEDMTEDELREFFSQ

T3: TP-40 (human)
T3 peptide: Biotin-NNQNQGNMQREPNQA

T4: TP-48 (human)
T4 construct: 23 residues
T4 peptide: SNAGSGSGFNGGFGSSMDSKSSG

T5: TDP-6 (human)
T5 construct: One of the 40-66 aa linear peptides; also called TDP-43 peptide 140-200
T5 peptide: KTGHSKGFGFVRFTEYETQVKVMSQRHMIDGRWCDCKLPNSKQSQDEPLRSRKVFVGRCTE

B1: ACI-7069-642D12-Ab1 (antibody, IgG2b, V domains shown)
VH: EVQLQQSGAELVKPGASVRLSCTASGFNIKDPYMHWVRQRPKQGLEWIGRIDPADGNTKYDPKFQGKATLTADTSSNVAYLHLSSLTSEDTAVYYCARFYGSSHWYFDVWGAGTTVTVSS
VL: DIKMTQSPSSMYASLGERVTITCKASQDIKRYLSWYQQKPWKSPKILIYYATSLADGVPSRFSGTGSGQDYSLTISSLESDDVATYYCLQQGESPYTFGGGTKLEIK
notes: also called 642D12B4
B2: ACI-7071-809D9-Ab2 (antibody, IgG2b, V domains shown)
VH: QVQLQQSGAELVRPGVSVKISCKGSGYKFTDYSMHWVKQSHTKSLEWIGVISTYYGDTTYNQKFKGKATITVDKSSSTAYMELARLTSEDSAIYYCATYGNFPASFSYWGQGTLVTVSA
VL: DIVMTQAAPSIPVTPGESVSISCRSSKSLLHSNGNTYLYWFLQRPGQSPQLLIYRMSNLASGVPDRFSGSGSGTAFTLRISRVEAEDVGVYYCMQHLEYPFTFGSGTKLEIK
notes: also called 809D9C2
B3: ACI-7071-809F12-Ab1 (antibody, IgG2b, V domains shown)
VH: QVQLKESGPGLVAPSQSLSITCTVSGFSLNRNGVQWVRQPPGKGLEWLGVIWPGGSTNCNSALMSRLSISKDNSKSQVFLKMNSLHTDDTGIYYCARVGGNYVWDYNNYAWGQGTLVTVSA
VL: DVLMTQTPLSLPVSLGDQASISCRSSQNIVHSIGNTYLEWYLQKPGQSPKLLIYKVSNRFSGVPDRFSGSGSGTDFTLKISRVEAEDLGVYYCFQGSHVPYTFGGGTKLEIR
notes: also called 809F12D8
B4: ACI-7069-641H1-Ab2 (antibody, IgG2b, V domains shown)
VH: QVQLKESGPGLVAPSQSLSITCTVSGFSLTNYGVHWVRQPPGKGLEWLGLMWAGGSTNYNSALMSRLSISKDNSKSQVFLKMNSLQTDDTAMYYCVIYRTGFAYWGQGTLVTVSA
VL: B3 VL with N28S, S32T, Y101F, G105S, R112K
notes: also called 641H1E7
B5: ACI-7069-646B7-Ab1 (antibody, IgG2b, V domains shown)
VH: B4 VH with Y32F, L50I, R99K
VL: B3 VL with N28S, S32A, Y101F, G105S, R112K
notes: also called 646B7F7
B6: ACI-7069-636E5-Ab1 (antibody, IgG2b, V domains shown)
VH: EVHLVESGGDLVMPGGSLKLSCAASGFTFSNYGMSWVRQTPDKRLEWVATISSGGKYINYLDSLKGRFTISRDNAKNTLYLQMSSLKSEDTAMYYCAKDYGSGWAWFAYWGQGTLVTVSA
VL: QLVLTQSSSASFSLGASAKLTCTLSSQHSTYTIEWYQQQPLKPPKYVMELKKDGSHSTGDGIPDRFSGSSSGADRYLSISNIQPEDEAIYICGVGDTIKEQFVYVFGGGTKVTVL
notes: also called 636E5B8
B7: ACI-7069-642A10-Ab1 (antibody, IgG1, V domains shown)
VH: QVQLQQPGAELVKPGASVKLSCKASGYTFTKYWMHWVKQRPGQGLEWIGEINPSNGRTNYNEKFKSKATLTVDKSSSTAYMQLSSLTSEDSAVYYCARYMDYWGQGTSVTVSS
VL: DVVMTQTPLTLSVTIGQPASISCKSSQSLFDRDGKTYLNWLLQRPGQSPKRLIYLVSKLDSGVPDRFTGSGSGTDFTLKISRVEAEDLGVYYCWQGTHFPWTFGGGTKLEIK
notes: also called 642A10B11
B8: ACI-7069-634H10-Ab2 (antibody, IgG2b, V domains shown)
VH: EVQLQQSGAELVKPGASVRLSCTASGFNIKDTYMHWVKQRPEQGLEWIGRIDPANSNTKFDPKFQGKATITSDTSSNTAYLQLSSLTSEDTAVYYCARFYGGSHWYFDVWGAGTTVTVSS
VL: B1 VL with R31S, Q38H, I46A, T65S, V83T
notes: also called 634H10H7
B9: ACI-7071-712A6-Ab1 (antibody, IgG2c, V domains shown)
VH: QVQLQQSGAELVKPGTSVKLSCKASAYTFTEYTIHWIKQKSGQGLEWIGWFHPENDNIKYNENFKDKATLTADRSSSTVYMELSRLTSEDSAVYFCAGTSGYGDYWGQGTTLTVSS
VL: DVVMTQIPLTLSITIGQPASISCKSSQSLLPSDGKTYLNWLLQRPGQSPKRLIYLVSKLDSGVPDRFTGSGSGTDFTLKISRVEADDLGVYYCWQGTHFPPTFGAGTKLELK
notes: Mouse hybridoma antibody, IgG2c; also called 712A6B10
B10: ACI-7069-633B12-Ab1 (antibody, IgG2b, V domains shown)
VH: EVQLQQSGPELVKPGASVKISCKTSGFTFTEYSMHWVKQSHGKSLEWIGGINPNNGGTSYNQKFKGKATLTVDKSSSTAYMELRSLTSEDSAVYYCARESWGQGTTLTVSS
VL: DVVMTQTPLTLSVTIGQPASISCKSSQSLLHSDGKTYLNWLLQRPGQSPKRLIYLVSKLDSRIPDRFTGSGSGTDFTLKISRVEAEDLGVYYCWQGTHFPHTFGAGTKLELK
notes: also called 633B12C8
B11: ACI-7069-631B2-Ab1 (antibody, IgG1, V domains shown)
VH: B10 VH with F27Y, M34I, K43E, N54D, S59R, E82D
VL: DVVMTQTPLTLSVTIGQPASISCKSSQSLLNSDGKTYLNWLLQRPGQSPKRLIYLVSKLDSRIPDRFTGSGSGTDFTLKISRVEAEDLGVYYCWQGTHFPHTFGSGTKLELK
notes: also called 631B2A2

Substitutions are numbered along the chain they refer to. No end group written: not given here. *: point of attachment. Biotin = O=C1N[C@H]2[C@H](CS[C@H]2CCCCC(=O)*)N1 A value given as a limit tells only on which side of the number the result lay.

The first assay addresses T1, TP-21. Briefly: indirect ELISA on TDP-43 peptides, antibody at 1 µg/ml.
With B1, the binding result is recorded as “binds”.

Another assay deals with T2, TP-23. The description is as above.
In the case of B2, the binding result is “binds”. Consider B3, for which the binding result is reported as “binds”. Turning to B4, the binding result is recorded as “binds”. Turning to B5, the binding result was “binds”.

The target in a further assay is T3, TP-40. The assay is described as above.
As to B6, the binding result is reported as “binds”.

For a further assay, the target named is T4, TP-48. The description is as above.
Regarding B7, the binding result was “binds”.

The target of a further assay is T5, TDP-6. The description is as above.
Take B8: the binding result is given as “binds”.

The target of a further assay is T6, human full length TDP-43 (FL TDP-43), recombinant, soluble (human, UniProt Q13148 1-414).
T6 construct: Antigen of Luminex, ELISA and SPR (soluble form); also called TDP-43 protein; Soluble TDP-43
T6 sequence (Q13148 whole entry): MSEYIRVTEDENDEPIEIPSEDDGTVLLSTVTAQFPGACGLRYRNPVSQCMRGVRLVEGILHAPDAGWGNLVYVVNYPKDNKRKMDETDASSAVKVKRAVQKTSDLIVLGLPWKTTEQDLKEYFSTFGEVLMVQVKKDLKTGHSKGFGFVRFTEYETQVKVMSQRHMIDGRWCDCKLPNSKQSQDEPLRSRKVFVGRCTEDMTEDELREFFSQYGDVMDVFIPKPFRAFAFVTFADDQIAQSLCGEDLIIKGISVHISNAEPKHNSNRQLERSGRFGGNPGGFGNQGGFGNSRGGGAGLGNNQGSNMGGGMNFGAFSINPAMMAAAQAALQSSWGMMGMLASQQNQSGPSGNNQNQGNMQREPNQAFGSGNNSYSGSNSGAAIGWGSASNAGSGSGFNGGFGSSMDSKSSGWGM
Briefly: Luminex, beads conjugated to FL TDP-43, antibody serial dilution. As for the experimental part:
Mice were euthanized and fusion with myeloma cells was performed using splenocytes from four individual mice. Screening for antibodies from the successfully fused hybridoma cell lines were performed as follows. Diluted (1:32) cell culture supernatants were analyzed using Luminex bead-based multiplex assay (Luminex, The Netherlands). Luminex beads were conjugated to FL TDP-43 and with capturing IgGs with anti-mouse IgG-Fc antibodies specific for the IgG1, IgG2a, IgG2b, IgG2c, and IgG3 subclasses (Jackson Immunoresearch, USA). Binding to beads conjugated to FL TDP-43 identified 386 hits derived from mice immunized with the FL TDP-43 liposomal vaccine.
Luminex assays with serial dilution of antibodies were performed as described before to determine half maximal effective concentration (EC50) of binding of antibodies to FL TDP-43. In summary, all tested antibodies bind to full length TDP-43 with high affinity.
With B2, the EC50 was below 10 µM. Regarding B9, the EC50 was determined as 180 µM. As to B6, the EC50 was below 10 µM. Still for that read-out and setting: with B8 the figure was below 10 µM; with B1, below 10 µM; with B3, below 10 µM. Consider B4, for which the EC50 is below 10 µM. In the case of B5, the EC50 is below 10 µM. On to B10, for which the EC50 was below 10 µM. As for B11, the EC50 is below 10 µM.
